Consider 32 variants from the RNAGym collection of RNA variant scans (doi:10.7554/elife.80360).

Sequences and labels used below:
B1: HDV Ribozyme (parent)
chain: GGCCGGCAUGGUCCCAGCCUCCUCGCUGGCGCCGGCUGGGCAACAUUCCGAGGGGACCGUCCCCUCGGUAAUGGCGAAUGGGACCCA

The variants in the series derive from B1. In words: self-cleavage, relative activity (ratio to wild type); higher = more cleavage; co-transcriptional.
Consider GGCCGGCAUGGUCCCAGCUUCCGCGCUGGCGCCGGCUGGGCAACAUUCCGAGGGGACCGUCCCCUCGGUAAUGGCGAAUGGGACCCA, for which the self-cleavage was 0.237.
As for GGCCGGCAUGGUCCCAGCUUCCUCGCUGUCGCCGGCUGGGCAACAUUCCGAGGGGACCGUCCCCUCGGUAAUGGCGAAUGGGACCCA, the figure is 0.153; as for GGCCGGCAUGGUCCCAGCUUCCUCGCUGGCGCCGGCUGGGCAACACUCCGAGGGGACCGUCCCCUCGGUAAUGGCGAAUGGGACCCA, 0.213; as for GGCCGGCAUGGUCCCAGCUUCCUCGCUGGCGCCGGCUGGGCAACAGUCCGAGGGGACCGUCCCCUCGGUAAUGGCGAAUGGGACCCA, 0.
Consider GGCCGGCAUGGUCCCAGCGUCCUCGCUGGCGCCGGCUGGGCAACAUGCCGAGGGGACCGUCCCCUCGGUAAUGGCGAAUGGGACCCA, for which the self-cleavage is 0.
Turning to GGCCGGCAUGGUCCCAGCUUCCUCGCUGGCGCCGGCUGGGCAACAUUCCGAGGGGACCGUCCCCUCGGUAAUGGCGCAUGGGACCCA, the self-cleavage came out at 0.0811.
For the variant GGCCGGCAUGGUCCCAGCUUCCUCGCUGGCGCCGGCUGGGCAACAUUCCGAGGGGACCGUCCCCUCGGUAAAGGCGAAUGGGACCCA, the self-cleavage is 0.0504.
As for GGCCGGCAUGGUCCCAGCGUCCUCGCUGGCGCCGGCUGGGCAACAUUCCGAGGGGACCGUCCCCUCGGCAAUGGCGAAUGGGACCCA, the self-cleavage was 0.
As for GGCCGGCAUGGUCCCAGCGUCCUCGCUGGCGCCGGCUGGGCAACAUUCCGAGGGGACCGUCCCCUCGGAAAUGGCGAAUGGGACCCA, the self-cleavage was determined as 0.
With GGCCGGCAUGGUCCCAGCGUCCUCGCUGGCGCCGGCUGGGCAACAUUCCGAGGGGACCGACCCCUCGGUAAUGGCGAAUGGGACCCA, the self-cleavage was determined as 0.0959.
As for GGCCGGCAUGGUCCCAGCGUCCUCGCUGGCGCCGGCUGGGCAACAUUCCGAGGGGACCGCCCCCUCGGUAAUGGCGAAUGGGACCCA, the figure is 0.0627; as for GGCCGGCAUGGUCCCAGCGUCCUCGCUGGCGCCGGCUGGGCAACAUUCCGAGGGGACCGGCCCCUCGGUAAUGGCGAAUGGGACCCA, 0.0405.
As for GGCCGGCAUGGUCCCAGCUUCCUCGCUGGCGCCGGCUGGGCAACAUUCCGAGGGGACCGUCCCCUCGGUAUUGGCGAAUGGGACCCA, the figure is 0.13.
As for GGCCGGCAUGGUCCCAGCUUCCUCGCUGGCGCCGGCUGGGCAACAUUCCGAGGGGACCGUCCCCUUGGUAAUGGCGAAUGGGACCCA, the self-cleavage stood at 0.22.
For GGCCGGCAUGGUCCCAGCUUCCUCGCUGGCGCCGGCUGGGCAACAUUCCGAGGGGACCGUCCCCUAGGUAAUGGCGAAUGGGACCCA, the self-cleavage is 0.182.
With GGCCGGCAUGGUCCCAGCUUCCUCGCUGGCGCCGGCUGGGCAACAUUCCGAGGGGACCGUCGCCUCGGUAAUGGCGAAUGGGACCCA, the self-cleavage was found to be 0.
As for GGCCGGCAUGGUCCCAGCGUCCUCGCUGGCGCCGGCUGGGCAACAGUCCGAGGGGACCGUCCCCUCGGUAAUGGCGAAUGGGACCCA, the self-cleavage turned out to be 0.107.
As for GGCCGGCAUGGUCCCAGCGUCCUCGCUGGCGCCGGCUGGGCAACAAUCCGAGGGGACCGUCCCCUCGGUAAUGGCGAAUGGGACCCA, the figure is 0; as for GGCCGGCAUGGUCCCAGCUUCCUCGCUGGCGCCGGCUGGGCAACAUUCCGAGGGGACCGUCCCCUCGGCAAUGGCGAAUGGGACCCA, 0.0997.
With GGCCGGCAUGGUCCCAGCUUCCUCGCUGGCGCCGGCUGGGCAACAUUCCGAGGGGACCGUCCCCUCGGUUAUGGCGAAUGGGACCCA, the self-cleavage was 0.169.
Consider GGCCGGCAUGGUCCCAGCUUCCUCGCUGGCGCCGGCUGGGCAUCAUUCCGAGGGGACCGUCCCCUCGGUAAUGGCGAAUGGGACCCA, for which the self-cleavage amounted to 0.104.
Take GGCCGGCAUGGUCCCAGCUUCCUCGCUGGCGCCGGCUGGGCACCAUUCCGAGGGGACCGUCCCCUCGGUAAUGGCGAAUGGGACCCA: the self-cleavage is 0.111.
For GGCCGGCAUGGUCCCAGCUUCCUCGCUGGCGCCGGCUGGGCAACAUUCCGAGGGGACCGUCCCCUCGGUAAUGGGGAAUGGGACCCA, the self-cleavage came to 0.0739.
As for GGCCGGCAUGGUCCCAGCGCCCUCGCUGGCGCCGGCUGGGCAACAUUCCGAGGGGACCGUCCCCUCGGUAAUGGCGAAUGGGACCCA, the self-cleavage is 0.0692.
As to GGCCGGCAUGGUCCCAGCUUCCUCGCUGGCGCCGGCUGGGCAAAAUUCCGAGGGGACCGUCCCCUCGGUAAUGGCGAAUGGGACCCA, the self-cleavage was 0.
Take GGCCGGCAUGGUCCCAGCUUCCUCGCUGGCGCCGGCUGGGCAAUAUUCCGAGGGGACCGUCCCCUCGGUAAUGGCGAAUGGGACCCA: the self-cleavage is 0.0852.
Take GGCCGGCAUGGUCCCAGCUUCCUCGCUGGCGCCCGCUGGGCAACAUUCCGAGGGGACCGUCCCCUCGGUAAUGGCGAAUGGGACCCA: the self-cleavage turned out to be 0.0346.
As for GGCCGGCAUGGUCCCAGCUUCCUCGCUGGCGCCGGCUGGGCAACAUUCCGAGGGGACCGUCCCCUCUGUAAUGGCGAAUGGGACCCA, the self-cleavage stood at 0.145.
As for GGCCGGCAUGGUCCCAGCUUCCUCGCUGGCGCCGGCUGGGCAACAUUCCGAGGGGACCGUCCCCUCGGUAAUGGCGAUUGGGACCCA, the figure is 0.111; as for GGCCGGCAUGGUCCCAGCUUCCUCGCUGGCGCCGGCUGGGCAACAUUCCGAGGGGAACGUCCCCUCGGUAAUGGCGAAUGGGACCCA, 0.0886.
Regarding GGCCGGCAUGGUCCCAGCUUCCUCGCUGGCGCCGGCUGGGCAACAUUCCGAGGGGACCGUUCCCUCGGUAAUGGCGAAUGGGACCCA, the self-cleavage was 0.0898.
In the case of GGCCGGCAUGGUCCCAGCGUCCUCGCUGGCGCCGGCGGGGCAACAUUCCGAGGGGACCGUCCCCUCGGUAAUGGCGAAUGGGACCCA, the self-cleavage is 0.111.
